# Ends that are not written are not given here.
# B1: AGM-330 variant R1H2 → Deletion (SEQ ID NO: 16) (peptide)
# peptide: GAMVYLK
# modifications: also: PEGylated, biotin-conjugated (sites not given here)
# notes: also called GAMVYLK
# B2: AGM-330 variant A4 → L4 (SEQ ID NO: 11) (peptide)
# peptide: RHGLMVYLK
# modifications: also: PEGylated, biotin-conjugated (sites not given here)
# B3: AGM-330 variant H2 → R2 (SEQ ID NO: 10) (peptide)
# peptide: RRGAMVYLK
# modifications: also: PEGylated, biotin-conjugated (sites not given here)
# B4: AGM-330 variant V6 → A6 (SEQ ID NO: 14) (peptide)
# peptide: RHGAMAYLK
# modifications: also: PEGylated (site not given here), biotin-conjugated (site not given here)
# B5: AGM-330 variant M5 → L5 (SEQ ID NO: 12) (peptide)
# peptide: RHGALVYLK
# modifications: also: PEGylated, biotin-conjugated (sites not given here)
# B6: AGM-330 variant Y7 → F7 (SEQ ID NO: 15) (peptide)
# peptide: RHGAMVFLK
# modifications: also: PEGylated (site not given here), biotin-conjugated (site not given here)
# B7: AGM-330 variant R1 → K1 (SEQ ID NO: 9) (peptide)
# peptide: KHGAMVYLK
# modifications: also: PEGylated, biotin-conjugated (sites not given here)
# B8: Biotinylated AGM-330 (peptide)
# peptide: RHGAMVYLK
# modifications: also: biotin-conjugated (site not given here)
# notes: Bait of the pull-down assays; also called AGM-330-biotin; AGM-330-Biotin
# B9: AGM-330 variant R1H2R3H4 → Insertion (SEQ ID NO: 18) (peptide)
# peptide: RHRHRHGAMVYLK
# modifications: also: PEGylated (site not given here), biotin-conjugated (site not given here)
# B10: AGM-330 variant M5 → Nle5 (SEQ ID NO: 13) (peptide)
# peptide: RHGAXVYLK
# modifications: norleucine (Nle) at position 5; PEGylated; biotin-conjugated (sites not given)
# notes: also called RHGA(Nle)VYLK
# B11: AGM-330 variant Reverse sequence (SEQ ID NO: 19) (peptide)
# peptide: KLYVMAGHR
# modifications: also: PEGylated (site not given here), biotin-conjugated (site not given here)
# B12: AGM-330 variant R1H2 → Insertion (SEQ ID NO: 17) (peptide)
# peptide: RHRHGAMVYLK
# modifications: also: PEGylated, biotin-conjugated (sites not given here)
# B13: AGM-330 variant L10K11L12K13 → Insertion (SEQ ID NO: 20) (peptide)
# peptide: RHGAMVYLKLKLK
# modifications: also: PEGylated, biotin-conjugated (sites not given here)
# What was measured:
# MCF-10A and CCD-18Co = assay: Cell-growth-on-bead assay, normal cell lines; assay type: cell-based, human
# Experimental: (§1) Here, multiple breast and colorectal cancer cells and normal breast and colorectal cells were re-suspended at 10^6 cells/ml and incubated with beads. All experiments were repeated 3 times, and the scale bar is 200 μm. […] Here, nuclei were stained with DAPI (blue), and scale bar is 50 μm. […] Here, a whole-cell binding assay was performed to determine the cell binding of AGM-330, and the scale bar is 200 μm. […] Fmoc=9-fluorenylmethoxycarbonyl, DMF=dimethylformamide. […] Here, bar graphs represent the mean±SD, and statistical analyses were performed by one-way ANOVA with Dunnett's multiple comparison. *, **, and *** indicate P<0.05, P<0.01, and P<0.001, respectively.
# (§2) The beads were washed extensively with double-distilled water and phosphate-buffered saline (PBS; Welgene Inc., Korea) before screening. Cancer cells and normal cells were detached from culture dishes with trypsin/EDTA (Gibco), washed with their corresponding culture medium, resuspended at 10^6 cells/ml, and incubated with OBOC beads in Petri dishes in a humidified CO2 incubator at 37° C. with shaking (60 rpm). Beads bound by cells appeared under a microscope as rosettes with a central bead covered by one or more layers of cells. The positive beads were picked by pipette under an inverted microscope, treated with guanidine-HCL (8 M, 20 min) to remove cells and proteins on the bead surface, and subjected to a second round of screening with normal breast epithelial cells to eliminate false positive binding. Only beads with cell binding at both rounds were sent for peptide sequencing.
# (§3) To identify a novel cancer-specific peptide ligand, the present inventors synthesized about 2, 600,000 libraries using 5 g of Tentagel MB NH2 resin (200 μm, 520,000 beads/g; FIG. 3).
# MDA-MB-231 = assay: Whole-cell binding (cell-growth-on-bead) assay of screened peptide beads; assay type: cell-based, human
# Experimental: as §1, §2, §3
# MCF-10A = assay: as above; assay type: cell-based, human
# Experimental: as §1, §2, §3
# Cancer cells = assay: ELISA for the affinities of AGM-330 and its variants on cancer cells; assay type: cell-based; settings: biotin-conjugated PEGylated peptides, 2 hours, read at 450
# Experimental: (§4) Then, avidin-HRP was attached through a high-affinity avidin-biotin interaction, and the TMB substrate was converted to blue through HRP enzyme. Then, the reaction was terminated by adding an acid, and the affinities of the 13 peptides were assessed by ELISA by reading the wells at […].
# Cancer cells (1×10^4 cells/well) were cultured in 96-well plates for 24 hours. AGM-330 and the 12 PEGylated peptides shown Table 2 were biotin-conjugated, and the cells were treated with increasing concentrations of the 13 peptides for 2 hours.
# as §4, with “Thereafter, avidin-HRP” for “Then, avidin-HRP”, “blue color” for “blue”
# NCL = NCL (Homo sapiens, UniProt P19338); assay: siRNA-mediated knockdown of NCL (real-time PCR, Western blot); assay type: cell-based
# Sequence of NCL (P19338 whole entry): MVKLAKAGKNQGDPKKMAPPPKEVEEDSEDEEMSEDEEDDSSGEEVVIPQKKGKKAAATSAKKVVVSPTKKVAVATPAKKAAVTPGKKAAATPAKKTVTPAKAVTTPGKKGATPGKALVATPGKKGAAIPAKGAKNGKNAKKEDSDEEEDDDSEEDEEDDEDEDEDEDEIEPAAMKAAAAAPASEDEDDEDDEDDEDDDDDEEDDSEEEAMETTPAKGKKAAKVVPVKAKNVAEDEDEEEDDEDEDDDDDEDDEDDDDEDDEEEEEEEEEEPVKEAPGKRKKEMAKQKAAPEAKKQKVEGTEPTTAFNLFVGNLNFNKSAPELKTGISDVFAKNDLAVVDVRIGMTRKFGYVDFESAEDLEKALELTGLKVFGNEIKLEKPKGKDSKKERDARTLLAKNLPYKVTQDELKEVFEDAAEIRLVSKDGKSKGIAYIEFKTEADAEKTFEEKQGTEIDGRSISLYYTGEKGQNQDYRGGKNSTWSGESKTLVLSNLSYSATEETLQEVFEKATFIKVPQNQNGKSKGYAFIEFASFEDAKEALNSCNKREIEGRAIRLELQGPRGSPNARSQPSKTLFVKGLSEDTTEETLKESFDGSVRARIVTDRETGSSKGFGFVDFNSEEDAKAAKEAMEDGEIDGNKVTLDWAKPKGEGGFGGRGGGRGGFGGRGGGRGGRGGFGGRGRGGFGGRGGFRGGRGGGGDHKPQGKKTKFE
# [1] = target: T1, membrane nucleolin (NCL) on cancer cells (human, UniProt P19338 2-710); assay: cell ELISA: biotin-conjugated PEGylated peptide on cancer cells (cell line not given), 2 h, avidin-HRP/TMB, absorbance at 450 nm
# T1 construct: whole, on cells; also called membrane NCL; membrane-expressed NCL
# T1 sequence (P19338 2-710): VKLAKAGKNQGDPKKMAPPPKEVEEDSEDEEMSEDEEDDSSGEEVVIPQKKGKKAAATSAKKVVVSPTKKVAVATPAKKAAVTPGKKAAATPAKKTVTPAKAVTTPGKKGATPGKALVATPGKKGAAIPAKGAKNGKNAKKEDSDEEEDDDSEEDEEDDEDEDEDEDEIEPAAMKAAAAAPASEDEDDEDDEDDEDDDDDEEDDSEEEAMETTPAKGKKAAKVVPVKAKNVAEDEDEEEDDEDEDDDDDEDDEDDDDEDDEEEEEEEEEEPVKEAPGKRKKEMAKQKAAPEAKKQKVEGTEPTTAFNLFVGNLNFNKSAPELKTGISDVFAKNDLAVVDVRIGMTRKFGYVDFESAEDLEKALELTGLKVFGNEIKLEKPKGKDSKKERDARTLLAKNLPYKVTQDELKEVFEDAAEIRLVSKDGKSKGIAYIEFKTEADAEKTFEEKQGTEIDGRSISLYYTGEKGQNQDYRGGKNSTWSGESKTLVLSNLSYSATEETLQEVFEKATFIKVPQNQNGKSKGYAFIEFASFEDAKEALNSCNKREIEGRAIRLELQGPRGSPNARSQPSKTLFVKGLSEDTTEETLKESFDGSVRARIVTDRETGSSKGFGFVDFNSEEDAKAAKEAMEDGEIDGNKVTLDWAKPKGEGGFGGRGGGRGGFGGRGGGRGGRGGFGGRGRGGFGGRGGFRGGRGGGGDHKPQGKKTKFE
# Experimental: as §4, with “Cancer cells (1×10⁴ cells/well) were seeded in 96-well plates and cultured for 24 hours, and then the cells were treated with increasing concentrations of 13 biotin-conjugated peptides for 2 hours. Then, avidin-HRP” for “Then, avidin-HRP”
# Cancer cells (1×10⁴ cells/well) were cultured in 96-well plates for 24 hours. AGM-330 and the 12 PEGylated peptides shown Table 2 were biotin-conjugated, and the cells were treated with increasing concentrations of the 13 peptides for 2 hours.
# as §4, with “Thereafter, avidin-HRP” for “Then, avidin-HRP”, “blue color” for “blue”
molecule,measurement,setting,value
ADHRHRRSG (AGM-331),binding to normal cell lines MCF-10A and CCD-18Co,MCF-10A and CCD-18Co,relatively nonspecific and bound
same,binding to MDA-MB-231,MDA-MB-231,strong preferential binding
same,binding to the human normal breast cell line MCF-10A,MCF-10A,no or only weak binding
AVARARRRR (AGM-332),binding to normal cell lines MCF-10A and CCD-18Co,MCF-10A and CCD-18Co,relatively nonspecific and bound
same,binding to MDA-MB-231,MDA-MB-231,strong preferential binding
same,binding to the human normal breast cell line MCF-10A,MCF-10A,no or only weak binding
RHGA(Nle)VYLK (RHGAXVYLK; norleucine at position 5; AGM-330; Xaa can be any naturally occurring amino acid) [SEQ ID NO: 13],absorbance (binding affinity) compared with AGM-330,Cancer cells,higher absorbance than AGM-330
"RHGALVYLK (not fully specified) [SEQ ID NO: 12, AGM-330 variant, tested PEGylated and biotin-conjugated]",absorbance (binding affinity) compared with AGM-330,Cancer cells,higher absorbance than AGM-330
"RHGAMVFLK (not fully specified) [SEQ ID NO: 15, AGM-330 variant, tested PEGylated and biotin-conjugated]",absorbance (binding affinity) compared with AGM-330,Cancer cells,higher absorbance than AGM-330
"RHGAMVYLKLKLK (not fully specified) [SEQ ID NO: 20, AGM-330 variant, tested PEGylated and biotin-conjugated]",absorbance (binding affinity) compared with AGM-330,Cancer cells,higher absorbance than AGM-330
"siNCL1: siRNA targeting NCL, sense 5′-GAGCUAACCCUUAUCUGUA(dTdT)-3′ (SEQ ID NO: 21/22) (antisense UACAGAUAAGGGUUAGCUC; dTdT overhangs, further chemistry not given here)",NCL knockdown efficacy (mRNA),"NCL; MDA-MB-231 cells, among siNCL1, siNCL2, siNCL3",highest knockdown efficacy
same,basal expression of NCL in cytosolic and cell membrane fractions (Western blotting),NCL; siNCL1-treated cells,potently inhibited
B1,binding result,[1],binds
B2,EC50 (read off the curve),[1],~2 µM
B3,EC50 (read off the curve),[1],~2 µM
B4,EC50 (read off the curve),[1],~2 µM
B5,EC50 (read off the curve),[1],~2 µM
B6,EC50 (read off the curve),[1],~2 µM
B7,EC50 (read off the curve),[1],~2 µM
B8,EC50 (read off the curve),[1],~2 µM
B9,EC50 (read off the curve),[1],~2 µM
B10,binding result,[1],binds
B11,binding result,[1],binds
B12,binding result,[1],binds
B13,binding result,[1],binds
